From patent US20090220511A1 (RUTGERS THE STATE UNIVERSITY OF NEW JERSEY, published 2009) come the findings set out here.

The target of series [1] is FLAG tagged chimeric IL-10R1/CRF2-12 receptor (IL-10R1 extracellular domain fused to the transmembrane and intracellular domains of CRF2-12) on HT-29 cells (human) (UniProt Q13651). Description: cell-based or functional assay.
For series [2], the target named is T1, intact human CRF2-4 chain expressed alone on hamster 16-9 cells (human, UniProt Q08334 20-325).
T1 construct: whole, on cells; From plasmid pEF-CRF2-4 (pEF-IL-10R2), on hamster 16-9 cells without CRF2-12/γR1; also called IL-10R2
T1 sequence (looked up): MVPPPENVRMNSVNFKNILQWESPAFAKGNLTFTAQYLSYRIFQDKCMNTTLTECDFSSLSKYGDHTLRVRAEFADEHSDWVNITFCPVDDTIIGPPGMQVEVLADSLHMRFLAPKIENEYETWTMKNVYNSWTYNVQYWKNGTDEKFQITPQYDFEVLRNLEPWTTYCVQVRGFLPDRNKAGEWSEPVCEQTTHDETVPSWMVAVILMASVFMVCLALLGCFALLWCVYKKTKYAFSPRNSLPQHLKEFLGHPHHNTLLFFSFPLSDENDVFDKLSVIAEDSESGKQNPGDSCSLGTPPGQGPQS
Description: flow cytometry with anti-FLAG antibody on transfected hamster cells. The protocol: (§1) A. Four cell lines used in these experiments are schematically shown (top panels): the parental Chinese hamster 16-9 cells and cells expressing the human CRF2-12/gR1 chimeric receptor or human IL-10R2 alone or both receptors together. […] The cells were also tested for their ability to bind FL-IFN-λs (panels E, F, G, H and I). The cells were incubated for three hours at 20° C. with conditioned medium from COS-1 cells transfected with one of the following plasmids: the control vector pEF-SPFL (open areas, thick lines); the pEF-FL-IFN-λ1 (FL-IFN-λ1; open areas, thin lines; panels E, F, G and H) or the pEF-FL-IFN-λ2 (FL-IFN-λ2; shaded areas, thin lines; panel I). […] Cells expressing both chains were co-incubated with either FL-IFN-λ1 or FL-IFN-λ2 ([…] of conditioned media from COS cells expressing FL-IFN-λ1/2) and with E. coli produced IFN-λ1 lacking the FLAG epitope (IFN-λ1E. coli, 1 mg/ml) (open areas, thin lines; panels H and I). Ligand binding to the cell surface was determined by flow cytometry with anti-FLAG antibody (Sigma) as the primary antibody and fluorescein isothiocyanate-conjugated goat anti-mouse IgG (Santa Cruz) as the secondary antibody. The ordinate represents relative cell numbers, and the abscissa relative fluorescence (logarithmic scale).
In general terms: Flow cytometry measures light scatter and fluorescence of single cells or particles in a stream.

The target of series [3] is T2, chimeric human CRF2-12/γR1 chain expressed alone on hamster 16-9 cells (human, UniProt P15260 246-489).
T2 construct: domain: transmembrane and intracellular domains; On the cell surface of hamster 16-9 cells, without human CRF2-4; also called CRF2-12/IFN-γR1; CRF2-12/gR1
T2 sequence: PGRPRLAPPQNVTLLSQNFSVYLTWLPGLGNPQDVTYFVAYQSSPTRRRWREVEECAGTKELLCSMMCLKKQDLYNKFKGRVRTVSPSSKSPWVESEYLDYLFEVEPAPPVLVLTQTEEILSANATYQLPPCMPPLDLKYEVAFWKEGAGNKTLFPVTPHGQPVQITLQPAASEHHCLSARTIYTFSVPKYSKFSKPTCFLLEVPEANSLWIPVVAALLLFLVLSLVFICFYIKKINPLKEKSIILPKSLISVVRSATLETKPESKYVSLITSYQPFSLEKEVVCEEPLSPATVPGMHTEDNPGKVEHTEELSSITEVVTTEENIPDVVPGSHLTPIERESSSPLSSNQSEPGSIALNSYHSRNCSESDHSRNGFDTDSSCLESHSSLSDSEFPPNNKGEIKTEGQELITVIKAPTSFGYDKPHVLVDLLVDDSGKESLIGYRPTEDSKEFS
Described as above. The protocol: as §1

Series [4] concerns the molecule itself. The series is described as follows: crosslinking of the 32P-labeled ligand to itself in solution, SDS-PAGE. The protocol: (§2) Untreated 32P-labeled FL-IFN-λ1-P ([32P]FL-IFN-λ1-P) was loaded as a control (lane 1). ([32P]FL-IFN-λ1-P) was also incubated in DMEM medium with 10% FBS and crosslinking in solution was performed as described (32) (lane 2). The untransfected and transfected hamster cells described in FIG. 22 row 1 were incubated with 32P-labeled FL-IFN-λ1-P with or without addition of a 100-fold excess of unlabeled IFN-λ1 (competitor), washed, harvested and crosslinked. The extracted crosslinked complexes were analyzed on 7.5% SDS-PAGE. The molecular weight markers are shown on the left.
(§3) In another embodiment of the present invention, the interaction between IFN-λ and its receptor was characterized by crosslinking (FIG. 22). Crosslinking experiments were performed with radiolabeled IFN-λ (FIGS. 20B and C) and the IFN-λ receptor chains expressed in hamster cells (FIG. 22). COS cell-expressed FL-IFN-λ1-P was purified to homogeneity and radiolabeled (FIGS. 20B and C). […] FL-IFN-λ1-P was labeled with [32P]ATP and used for crosslinking to cells as described (Li, et al., (1989) Proc Natl Acad Sci USA 86, 558-562; Kotenko, et al., (1995) J Biol Chem 270, 20915-20921; Pestka, et al., (1999) Protein Expr Purif 17, 203-214; Kotenko, et al., (2001) J Immunol 166, 7096-7103).

For series [5], the target named is T1, intact human CRF2-4 chain expressed …. The series is described as follows: crosslinking of 32P-labeled ligand to transfected hamster cells, 7.5% SDS-PAGE. The protocol: as §2
as §3, with “7096-7103). […]” for “7096-7103).”

Series [6] concerns the target T2, chimeric human CRF2-12/γR1 chain …. The description is as above. The protocol:
as §2
as §3, with “7096-7103). […]” for “7096-7103).”

Chain of FLAG tagged chimeric IL-10R1/CRF2-12 receptor (IL-10R1 extracellular domain fused to the transmembrane and intracellular domains of CRF2-12) on HT-29 cells (human) (Q13651 other isoform, or with tags, fused parts or gaps mutant limits assumed): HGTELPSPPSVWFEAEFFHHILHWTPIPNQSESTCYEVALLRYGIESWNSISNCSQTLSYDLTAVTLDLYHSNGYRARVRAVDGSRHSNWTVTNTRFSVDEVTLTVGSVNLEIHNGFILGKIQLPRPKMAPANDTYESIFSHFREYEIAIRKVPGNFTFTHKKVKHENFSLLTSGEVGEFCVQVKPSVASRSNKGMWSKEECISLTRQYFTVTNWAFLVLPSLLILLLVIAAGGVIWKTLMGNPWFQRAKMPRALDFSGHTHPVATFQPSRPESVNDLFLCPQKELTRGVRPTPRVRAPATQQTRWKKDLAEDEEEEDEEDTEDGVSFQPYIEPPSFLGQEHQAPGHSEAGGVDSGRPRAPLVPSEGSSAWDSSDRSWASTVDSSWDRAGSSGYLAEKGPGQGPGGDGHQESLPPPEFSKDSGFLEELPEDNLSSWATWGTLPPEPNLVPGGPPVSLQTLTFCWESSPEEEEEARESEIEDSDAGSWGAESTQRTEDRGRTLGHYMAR

“IL-10 (from UniProt P22301 19-178) (ligand)”: in series [1], the MHC class I antigen induction and antiviral activity of HT-29 cells expressing FL-IL-10R1/CRF2-12 was found to be 1 ng/mL; the apoptosis of HT-29 cells expressing FL-IL-10R1/CRF2-12 was more than 10 ng/mL.

B1: FL-IFN-λ1 (IFN-λ1 tagged at its N-terminus with the FLAG epitope) (ligand, not shown: small tags and cut ends)
chain: PTSKPTPTGKGCHIGRFKSLSPQELASFKKARDALEESLKLKNWSCSSPVFPGNWDLRLLQVRERPVALEAELALTLKVLEAAAGPALEDVLDQPLHTLHHILSQLQACIQPQPTAGPRPRGRLHHWLHRLQEAPKKESAGCLEASVTFNLFRLLTRDLKYVADGNLCLRTSTHPEST
notes: Used as conditioned medium of transiently transfected COS-1 cells; also called FL-IFN-λ1gene product
Take B1: the binding result in series [2] and in series [3] was “no binding” throughout.

B2: 32P-labeled FL-IFN-λ1-P (ligand, not shown: small tags and cut ends)
chain: PTSKPTPTGKGCHIGRFKSLSPQELASFKKARDALEESLKLKNWSCSSPVFPGNWDLRLLQVRERPVALEAELALTLKVLEAAAGPALEDVLDQPLHTLHHILSQLQACIQPQPTAGPRPRGRLHHWLHRLQEAPKKESAGCLEASVTFNLFRLLTRDLKYVADGNLCLRTSTHPESTRRASVA
modifications: labeled with [32P]ATP on the C-terminal Arg-Arg-Ala-Ser-Val-Ala tag (consensus site of the cAMP-dependent protein kinase)
notes: Expressed in COS cells, purified on anti-FLAG M1 gel and radiolabeled; Primer ifnl-7R may encode extra junction residues before the RRASVA tag; also called [32P]FL-IFN-λ1-P; radiolabeled IFN-λ
For B2, the binding result in series [4], in series [5] and in series [6] was “no binding” throughout.
